This data set can be described thus: yeast display, Sf9 membrane polyspecificity reagent, FACS + sequencing; frameworks hold sequencing errors. Summed up:
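Polyreactivity labels are assigned by the sorting gate from which each nanobody was recovered. The gates were low and high (top ~1%), set on anti-HA fluorescence for expression and streptavidin fluorescence for reagent binding. Before sorting, galactose-induced (36–48 hours) yeast display cells were stained for 1 hour at 4 °C with 10% biotinylated, detergent-solubilized Sf9 membrane reagent.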
As to “QVQLVESGGGLVQAGGSLRLSCAASGSIFGYNVMGWYRQAPGKEREFVAAITYRGGGTYADSVKGRFTISRDNAKNTVYLQMNSLKPEDTAVYYCAARWYGWRSRRYDYWGQGTQVTVSS”, the “polyreactivity (PSR sort gate)” value is listed as “high polyreactivity”.

On to “QVQLVESGGGLVQAGGSLRLSCAASGSTYYNAMGWSRQAPGNERELVAAIRFRSGSTYYADSVKGRFTISRDNAKNTVYLQMNSLTPEDTAVYYCAADNKRSWRYAYNYWGQGTQVTVSS”, for which the “polyreactivity (PSR sort gate)” value was “high polyreactivity”.

For “QVQLVESGGGLVQAGGSLRLSCAASGRIFGKYMGWYRQAPGKERELVAAISRNGGRTYYADSVKGRFTISRDNAKNTVYLQMNCLNPEDTAVYYCAAASSRYDYWGQGTQVTVSS”, the “polyreactivity (PSR sort gate)” value is recorded as “high polyreactivity”.

For “QVQLVESGGGLVQAGGSLRLSCAASGYTFYDNAMGWYRQAPGKEREFVASITWSGGSTYYADSVKGRVTISRDNAKNTVYLQMNSLKPEDTAVYYCAAESWFKYDYWGQGTQVTVSS”, the “polyreactivity (PSR sort gate)” value was “low polyreactivity”.

With “QVQLVESGGGLVQAGGSLRLSCAASGRIFYSYAMGWYRQAPGKEREFVAAIRWSGGRTYYADSVKGRFTISRDNAKNTVYLQMNSLKPEDTAVYYCAAELYGNNFWDGTTGYDYWGQGTEVTVSS”, the “polyreactivity (PSR sort gate)” value is recorded as “low polyreactivity”.

Regarding “QVQLVESGGGLVQAGGSLRLSCAASGNTFVYYAMGWYRQAPGKERELVAGISRRSGSTYYADSVKGRFTISRDNAKNTVYLQMNSLKPEDTAVYYCAIGRTYLDAEDYWGQGSQVTVSS”, the “polyreactivity (PSR sort gate)” value is “low polyreactivity”.

Regarding “QVQLVESGGVLVQAGGSLRLTCAASASILYVYAMGWYRHAPGKERELVATITGRVVSTNYADSVKGRFTSSRDNAKNTVYLQMNSLKTEDTALYYCAASTRRRRGEYDYCGQGTQVTVSS”, the “polyreactivity (PSR sort gate)” value is on record as “high polyreactivity”.

In the case of “QVQLVESGGGLVQAGGSLRLSCAASGSTFSLYDMGWYRQAPGKERELVAAISSSGGGTYYADSVKGRFTISRDNAKKTVYLQMNSLKPEDTAVYYCAARFYYYPTKYDSWGQGTQVTVSS”, the “polyreactivity (PSR sort gate)” value is reported as “high polyreactivity”.

Take “QVQLVESGGGLVQAGGSLRLSCAASGRTFNRYAMGWYRQAPGKERELVAAINSVGSTYYADSVKGRFTISRDNAKNTVYLQMNSLKPEDTAVYYCNAVQGSRFGYWGQGTQVTVSS”: the “polyreactivity (PSR sort gate)” value is reported as “high polyreactivity”.

On to “QVQLVESGGGIVQAGGSLRLSCAASGFTFWVYAMGWSRQAPGNEWQLVAAISARGGSTYYADSVKVRFTISRDNAKNTVYLQMNSLKPVDTEVYYCAAEPSGKRSKFYYWGHGTQVTVSS”, for which the “polyreactivity (PSR sort gate)” value is given as “high polyreactivity”.

With “QVQLVESGGGLVQAGGSLRLSCAPSGLTFSNYAMGWYRQAPCKERELVAGISSSGGTTYYADSVKGRFTISRDNAKNTVFLQMNSLKPEDTAVYYCATRRHYGSFWYDYWGQGTQVTVSS”, the “polyreactivity (PSR sort gate)” value is reported as “high polyreactivity”.

On to “QVQLVESGGGLVQAGGSLRLSCAASGSTFDYNAMGWYRQAPGKERELVATISSSVGSTYYADSVKGRFTISRDNAKNTVNLQMNSLKPEDTAVYYCNSDYVAYGPEYDYWGQGTQVTVSS”, for which the “polyreactivity (PSR sort gate)” value is “low polyreactivity”.

Turning to “QVQLEESGGGLVQAGGSLRLSCAASGSIFYPYAMGWYRQAPGKERELVAAISGRGGNTYYADSVKGRFTISRDIAKNTVYLQMNSLKPEDSAVYDCAADRYYWSLYGYDYWGQGTQVTVSA”, the “polyreactivity (PSR sort gate)” value is given as “high polyreactivity”.

For the sequence “QVQHVESGGGLVQAGGSLRLSCAASGRIFHYYAMGWYRQAPGKERELVATISRRGGTTYYADSVKGRFTISRDNAKNTVYLQMNSLKPEDTAVYYCAAKYFGTRYDYWGQGTQVTVSS”, the “polyreactivity (PSR sort gate)” value is recorded as “high polyreactivity”.

For “QVQLVESGGGLVQAGGSLRLSCAASGRTLGHNAMGWYRQAPGKERELVAAITSRGGTTYADSVKGRFTISRDNAKNTVYLQMNSLKPEDTAVYYCAARGYAYSRYYYWGQGTQVTVSS”, the “polyreactivity (PSR sort gate)” value is recorded as “high polyreactivity”.

For “QVQLVESGGGLVQAGGSLRLSCAASGSIFDDNAMGWYRPAPGKERELVATINYGGGRTSYADSVKGRSTISRDNAKNTVYLQMNSLKPEDTAVYYCAADPRQKEDYWGQGTQVTVSS”, the “polyreactivity (PSR sort gate)” value is “low polyreactivity”.

Take “QVQLVESGGGLVQAGGSLRLSCAASGSTFYVNAMGWYRQAPGKERELVARITENGGITYYADSVKGRFTISRDNAKNTVYLQMNSLKPEDTAVYYCNTVQYRNEMGYWGQGTQVTVSS”: the “polyreactivity (PSR sort gate)” value was “high polyreactivity”.

For the sequence “QVHHVESGGGLVQAGGSLRLSCAAYGFIFNVYAMGWYRQAPGKERELVAAISTSGSNTYYADSVKGRFTISRDNAKNTVYLQMNSLKPEDTADYYCAAAYRYPSGRSFGYWGQGTQVTVSS”, the “polyreactivity (PSR sort gate)” value is listed as “high polyreactivity”.

As for “QVQLVESGGGLVQAGGSLRLSCAASGSIFTTYAMGWYRQAPGKERELVATITSSDSTNYADSVKGRFTISRDNAKNTVYLQMNSLKPEDTAVYYCNAGGDRTVSVAWYSADDYWGQGTQVTVSS”, the “polyreactivity (PSR sort gate)” value is “low polyreactivity”.

With “QVQLVESGGGLVQAGGSLRLSCAASGFTFRIYAMGWYRQAPGKERELVATISWSGTSTYYADSVKGRFTISRDYAKNTVFFQMNSLNPEDTAVYYCAKDGVSFYWLNKYYYWGQGTQVTVSS”, the “polyreactivity (PSR sort gate)” value is “low polyreactivity”.

Regarding “QVQLVESGGGLVQAGGSLRLSCAASGFIFYRYAMGWYRQAPGKERELVAAISGSGGRTYYADSVKGRFTISRDNAKNTVYLQMNSLKPEDTAVYYCAADKQAYVTDDYWGKGTQVTVSS”, the “polyreactivity (PSR sort gate)” value is on record as “high polyreactivity”.

Regarding “QDQLVESAGGLVQAGGSLRLSCAASVITFVRYVMGWYRQAPGKEREFVARIRWRGGSTNYADSVKGRFTISRDNAKNTVYLQMNSLKPEDTAVYYCNAVRRASSGYDYWGQGTQVTVSS”, the “polyreactivity (PSR sort gate)” value was “high polyreactivity”.

Regarding “QVQLVESGGGLVQAGGSLRVSCAASGSTFPYYTMGWYRQAPGKERELVDVMTIRGGSTYYAHSVNGRCTHSRDNAKNTVNLQMNSLKPEDTAVNYCAPTGQLQGWYDMYYWGQGTQVTVSS”, the “polyreactivity (PSR sort gate)” value is recorded as “low polyreactivity”.

In the case of “QVQLVETGGVLVQAGGSLRLSCAASGRIFFYYVMGWYRQAPGKERELVAGITRGGITNYADSVKGRLTISRDNAKNTVYLQMNSLKPEDTAVYYCKARAPSYYRYRASAAYDYWGLGTQVTVSS”, the “polyreactivity (PSR sort gate)” value is given as “high polyreactivity”.

As to “QVQLVESGGGLVQAGGSLRLTCAASGRILYSYAMGWYRQEPGKERELVAAISGSGGSTYYADSVKGRFTISRDNSKNTVYLQMNMLKPEDTAVYYCAARDLYRYRPQGLGSSQRYYYWGQGTQVTVSS”, the “polyreactivity (PSR sort gate)” value is on record as “high polyreactivity”.

For the sequence “QVQLVESGGGLVQAGGSLRLSCAASGSTFHLYAMGWYRQAPGKEREFVAAIRGRGGNTYADSVKGRFTISRDNAKNTVYLQMHSLKPEDTAVYYCAAPLLRDLRSPYSYNYWGQGTQVTVSS”, the “polyreactivity (PSR sort gate)” value is “low polyreactivity”.

Regarding “QVQLVESGGGLVQAGGSLRLSCAASGITFISYVMGWYRQAPWKERELLAAISKRGGSTYYADSVKGRFTISRDNAKNTVYLQMNSLKPEDTAVYYCAAKTIPWSVGYDYWGQGTQVTVSS”, the “polyreactivity (PSR sort gate)” value is reported as “high polyreactivity”.

For the sequence “QVQLVESGGGLVQAGGSLRLSCPASGRIYDYNGMRWYRQAPRKERELVAAITSSGSRTYYADSVKGRFTISRDNAKNTVYFQMNSLKPEDTAVYYCARGGGRRKGLVDYWGQGTQVSVSS”, the “polyreactivity (PSR sort gate)” value is “low polyreactivity”.

As to “KVQLVESGGGLVQAGGSLRLSCAASGSTFIGNAMGWYRQAPGKERELVAAISRTGGSTYADSVKGRFTISRDNAKNTVYLQMNSLKPEDTAVYYCNAVRWYYDYWGQGTQVTVSS”, the “polyreactivity (PSR sort gate)” value is given as “high polyreactivity”.

On to “QVQLVESGGGLVQAGGSLRLSCAASGRTFGYNAMGWYRQAPGKERELVAVITSSGGRTYADSVKGRFTISRDNAKNTVYLQMNSLKPEDTAVYYCATRTRLAQYSRGRYRYDYWGQGTQVTVSS”, for which the “polyreactivity (PSR sort gate)” value is listed as “high polyreactivity”.

With “QVQLVESGGGLVQAGGSLRLSCAASGLIIGVYAMGWYRQAPGKERELVAAITDGGSTYYADSVKGRFTISRDNAKNTVYLQMNSLKPEDTAVYYCNKLYTRVGFTFEYWGQGTQVTVSS”, the “polyreactivity (PSR sort gate)” value is given as “low polyreactivity”.

“QVQLVESGGGLVQAGGSLRLSCAASGSTFTPYAMGWSRKAPGKERELVAVIRWRGGRTYYADSVQGRFTISRDNAKNTVYLQMNSLKPEDTAVYYCAAGGSQGAGGYGYYGYDYWGQGTQETVSS”: the “polyreactivity (PSR sort gate)” value is listed as “low polyreactivity”.

For “QVQLVESGGGLVQAGGSLRLSCAASGRIFDIYAMGWYRQAPGKERELVASISWSGDSTYYADSVKGRFTISRDNAKNTVYLEMNSLKPEDTAVYYCAAEGEDTEGYDYDYWGQGTQVTVSS”, the “polyreactivity (PSR sort gate)” value was “low polyreactivity”.

Take “QVQLVESGGGLVQAGGSLRLSCAASGRTFTKYAMGWYRQAPGKERELVAGITRRGGNTYYADSVKGRFTISRDNAKNTVYLQMNSLKPEDTAVYYCAATLFYTGSRFRYYYWGQGTQVTVSS”: the “polyreactivity (PSR sort gate)” value is “high polyreactivity”.

For the sequence “QVQLVESGGALVQAGCSLSLSCAASGRIFSHNAMGWYRQAPGKERELVAGISSGGGTTYADSVKGRFTISRDNAKNNVYLQMNSLKPEDTAVYYCNKQDQPVGRSGYPYGYDYWGQGTQVTVSS”, the “polyreactivity (PSR sort gate)” value was “low polyreactivity”.

Take “QVQLVESGGRLVQAGGSLRLSCAASGFTFYGYAMGWYRQAPGKERELVAAISRGGGRTYYADSVKGRFTISRDNAKNTVYLQMNSLKPEDTAVYYCAAQGGSKTSSRSYGYWGQGTQVTVSS”: the “polyreactivity (PSR sort gate)” value is given as “high polyreactivity”.

“QVQLVESWGGLVQAGGSLRISCAASGRTFVRNALGWYRHAPGKEREMVAGITRSGGSTYYADSVKGRFTISRDNAKNTVYLQMNSLKPEDTAVYYCATQYRYYNHFVTPFTRYGYWGQGTQLTVSS”: the “polyreactivity (PSR sort gate)” value was “high polyreactivity”.

In the case of “QVQLVESGGGLVQAGGSLRLSCAASGRTFGGYALGWYRQAPGKERELVATISYSSGSTYYADSVKGRFTISRDNAKNTVYLQMNSLKPEETAVYYCAARIRYFYRYDYWGQGTQVTVTS”, the “polyreactivity (PSR sort gate)” value is recorded as “high polyreactivity”.

For “QVQLVESGGGLVQAGGSLRLSCAASVSTFYRYTMVWYRQAPGKERELVAAITYRGGTTYYADSVKGRFTISRDNAKNTVYLQMNSLKPEDTAVYYCAAYSSLGYIMNYWGQGTQVTVSS”, the “polyreactivity (PSR sort gate)” value is reported as “high polyreactivity”.

As to “QVQLVESGGGLVQAGGSLRLSCAASGSTFYAYAMGWYRQAPGKERELVAAIDSGGSTYYADSVKGRFTISRDNAKNTVYLQMNSLKPEDTAVYYCAVRHRYTRAYWGRVYWGQGTQVTVSS”, the “polyreactivity (PSR sort gate)” value is “low polyreactivity”.

In the case of “QVQLVESGGGLVQAGGSLRLSCAASGFIFWPNAMGWYRQPPGKERELVAAISYSGGSTYYADSVKGRFTISRDNAKNTVYLQMNSLKPEDTAVYYCAKLPYRRVDYGYWGQGTQVTVSS”, the “polyreactivity (PSR sort gate)” value was “high polyreactivity”.

The values above are taken from the nanobody polyreactivity screen of Harvey et al. (2022).
